{"source": "patent US20110280859A1", "about": "(UNIVERSITY OF ROCHESTER, published 2011)", "binders": {"B1": {"name": "Recombinant human activated protein C (enzyme)", "chain 1": "ANSFLEELRHSSLERECIEEICDFEEAKEIFQNVDDTLAFWSKHVDGDQCLVLPLEHPCASLCCGHGTCIDGIGSFSCDCRSGWEGRFCQREVSFLNCSLDNGGCTHYCLEEVGWRRCSCAPGYKLGDDLLQCHPAVKFPCGRPWKRMEKKRSHL", "chain 2": "LIDGKMTRRGDSPWQVVLLDSKKKLACGAVLIHPSWVLTAAHCMDESKKLLVRLGEYDLRRWEKWELDLDIKEVFVHPNYSKSTTDNDIALLHLAQPATLSQTIVPICLPDSGLAERELNQAGQETLVTGWGYHSSREKEAKRNRTFVLNFIKIPVVPHNECSEVMSNMVSENMLCAGILGDRQDACEGDSGGPMVASFHGTWFLVGLVSWGEGCGLLHNYGVYTKVSRYLDWIHGHIRDKEAPQKSWAP"}}, "key": {"[1]": {"target": "β3 integrins on human neutrophils (human, UniProt P05106 27-788)", "sequence (P05106 27-788)": "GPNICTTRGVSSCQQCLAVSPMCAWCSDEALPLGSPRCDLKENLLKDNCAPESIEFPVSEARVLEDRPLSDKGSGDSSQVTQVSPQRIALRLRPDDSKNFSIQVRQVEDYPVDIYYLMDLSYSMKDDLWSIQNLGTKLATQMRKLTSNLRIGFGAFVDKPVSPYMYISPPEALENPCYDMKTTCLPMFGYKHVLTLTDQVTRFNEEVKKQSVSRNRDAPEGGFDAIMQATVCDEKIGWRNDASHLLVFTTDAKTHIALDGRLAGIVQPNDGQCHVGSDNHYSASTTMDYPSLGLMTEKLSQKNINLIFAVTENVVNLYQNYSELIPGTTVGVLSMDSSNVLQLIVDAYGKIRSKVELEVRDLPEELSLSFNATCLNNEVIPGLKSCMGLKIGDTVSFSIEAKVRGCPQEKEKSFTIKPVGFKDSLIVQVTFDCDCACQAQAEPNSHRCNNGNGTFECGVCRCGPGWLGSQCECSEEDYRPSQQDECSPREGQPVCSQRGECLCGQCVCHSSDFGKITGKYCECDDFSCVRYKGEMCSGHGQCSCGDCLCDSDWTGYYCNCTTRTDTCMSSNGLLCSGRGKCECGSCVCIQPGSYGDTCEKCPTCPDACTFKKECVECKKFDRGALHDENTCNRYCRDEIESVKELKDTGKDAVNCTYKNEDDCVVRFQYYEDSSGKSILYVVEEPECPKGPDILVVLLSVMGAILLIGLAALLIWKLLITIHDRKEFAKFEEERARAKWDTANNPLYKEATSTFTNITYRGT", "experiment": "cell-based or functional assay"}, "[2]": {"target": "β1 integrins on human neutrophils (human, UniProt P05556 21-798)", "sequence (P05556 21-798)": "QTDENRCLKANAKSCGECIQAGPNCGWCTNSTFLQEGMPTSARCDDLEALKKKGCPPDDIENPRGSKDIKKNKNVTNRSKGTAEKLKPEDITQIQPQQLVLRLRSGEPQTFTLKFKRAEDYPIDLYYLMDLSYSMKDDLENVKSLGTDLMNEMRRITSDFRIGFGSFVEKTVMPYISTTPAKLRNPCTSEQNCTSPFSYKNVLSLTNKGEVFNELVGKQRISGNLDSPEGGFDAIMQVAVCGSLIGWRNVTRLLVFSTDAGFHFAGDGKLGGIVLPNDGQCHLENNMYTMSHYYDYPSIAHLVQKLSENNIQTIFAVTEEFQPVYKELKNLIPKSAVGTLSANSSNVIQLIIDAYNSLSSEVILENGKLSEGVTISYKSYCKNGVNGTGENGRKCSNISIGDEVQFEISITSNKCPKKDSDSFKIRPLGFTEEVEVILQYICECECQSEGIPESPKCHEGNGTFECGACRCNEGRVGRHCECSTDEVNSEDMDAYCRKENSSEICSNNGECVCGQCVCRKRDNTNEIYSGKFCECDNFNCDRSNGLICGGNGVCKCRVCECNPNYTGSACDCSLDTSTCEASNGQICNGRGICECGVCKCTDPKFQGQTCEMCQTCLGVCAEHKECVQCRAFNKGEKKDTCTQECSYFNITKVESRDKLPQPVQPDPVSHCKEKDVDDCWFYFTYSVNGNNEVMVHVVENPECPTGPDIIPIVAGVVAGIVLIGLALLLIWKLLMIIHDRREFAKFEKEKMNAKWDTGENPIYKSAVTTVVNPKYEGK", "experiment": "cell-based or functional assay"}}, "data": [{"binder": "B1", "values": [{"measurement": "average lateral migration speed (S) of neutrophils on FN toward fMLP, micropipette assay", "setting": "[1]", "value": 2.5, "unit": "fold"}, {"measurement": "average lateral migration speed (S) of neutrophils on FN toward fMLP, micropipette assay", "setting": "[2]", "value": 2.5, "unit": "fold"}]}]}
